Reference: the supplement of paper PMC12636428

Test system: Saccharomyces cerevisiae
Assay: transcriptional activation domain activity (GFP:mCherry ratio, weighted mean of sorted bins, harmonized to initial dataset scale) (arbitrary fluorescence ratio units); higher = stronger transcriptional activation
Settings: beta-estradiol 1 µM; induction time 4 h
How it was run: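 Sorting into 8 bins by GFP:mCherry ratio followed a 4-hour hold at 30 °C after cultures were diluted 1:5 into SC with 1 uM beta-estradiol. The yeast diploids carried a GFP reporter and had barcoded protein tiles, fused to an estradiol-inducible synthetic transcription factor, integrated at URA3. Barcodes were then sequenced, and tiles with under 50 reads were removed. Activation activity is the read-weighted mean of bin median fluorescence, averaged across barcodes and linearly mapped onto the initial dataset scale.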

Sequence	transcriptional activation domain activity
GLRLIYVVNHGAWGKGPPLATIWVYVIVQLNLLPAVLSLVVIAGFVQYLNLKI	77200
GLRNERHFVLFMAYFVLSCWCFCTLGYSYMYLSLDFTQDWPHWPGRTPFILIY	54000
GLTLLCLRRILQLWAGSDQLSELVSYVPVHLRVLAMRDAAVFAPLSRKVLQAL	57700
GLVSLDRLLVNRFGEALLSMGRAPTWSWKRALRAVLLSLVELSARCEFKLGSN	48400
GLVYMIGVYSISGLDRTLQMIHAILHVNFNSLVHKKGITHSCLLWLILIFFGL	48000
GLWLVLLCDAARFPDVVDLVKRKGSRFPASGDLASNESWYLSLWAIKAHILQR	64800
GMCVCTYRLHRCSHVKSRGRRFLCLHVLLCDVMMGPLTEWWCPLLRMMVKVYL	47800
GMEGERVKESIRRVQHQGADELYRRSQEKNGKGLRLSQSKTRSRGETPLQLIA	63100
GMFDGVYTGLGVKLPVDKLERYSAAEIAIMSWRVVYLYYWISFCILILCFILF	69900
GMGTAAGKSRARAAAKKTTTKGKESKGKSKSQVGTRRSVRGKRGAREVGDASS	27300
GMHSGDGEFVPFYAPVVVEGPVEAWLLEIEATMRVTLRKLLLGCILALKKAKK	61300
GMIGFDPNVSLEKIYHGRFKDILHKGIQIADRTFTFLGFSHSSLRGHTCWFAA	75600
GMKNIDEGPETENDATENSLTTILNDLEGPLEDFSENFIDDILGSPSAFFDTA	151000
GMKRFLPLCFVMYTLWCTTISITWKLICFLSVTADSTPTIQWRLLCMLFWYLF	33700
GMPESTVEDVGGPSTATVEEGGPREVEATVQGVEEASTSAPVKRGRGRPRKTS	30800
GMVPGYYPKMPYNPMGGDPLLDQAFYGADDFFFPPEGCDNNMLYPQTATSWNV	138000
GNAREMRASSARAAGFRRRGRQASNTRAAGNEREGGEQRARGRGASSARAGGI	43400
GNATAGAGAGQAGEAKGKGKAKAKAKGKEKKGKGKAKGKANGKNNQGAAAGGA	46300
GNAVYMSMDLPDTTFALSKLLNYIEWNRAKLFSFAFFVCVWTYFRHYLNLVIL	46000
GNDEAGAEDTDEDEIEGEGEEGQAPADGNEEEGAGEGESSRAMKKIGKKKAEK	16600
GNEREQREGRREKNGRGEKGKKEERRGRKKRGGGWKRVRRENQARKQGEKGEQ	38100
GNESDDESTEEEKEVKRKKKKKVAKKLPKKKAKKAAVKAKSKKSKKADSSDES	31000
GNGGAGAGAGGANANANANANAGNGAAAAGGNNAATAATGGGKAAKAAAAAAA	22600
GNGKNKHTQRHRGGEKRNLPPSKKQRRKKKSRRIRHRKAQPHPDDEQLQDDKG	17000
GNIHFTLRMALSDPDMTTVRPVLDLLFGLTHFFFVVNTGLFDLIQSCFKIIEA	55100

Sequence	transcriptional activation domain activity
GNNKPRGNNQRGGARNVRNGAEAGDEEAPREQRDSRSSRGRGEGRGRGRGRGG	31700
GNTGAGGEALVRSVGGSSAVEYPVCVEMDVVSGADGGEKLVWRTACDSRFVDG	44800
GNTVAIFVPFWEYCVLFPSELRIWKRMLRARPFRWHFAPIMTIILRYLLIIFA	45200
GPASGASKPKRRYVRKRKEPEEGAGVDNAEASSMAPKPKRQRKKKAPMAEARN	21900
GPDPFQQLSSAEHPNNHSSDDEHSGSQPLPLDSITIGIPPTLHTIPMILSKDN	62900
GPEYEPGRPSEQEVSLTRMLDKVLRRSDAIDKESLCIIAGQRVWHIRLTIHCL	87900
GPFQSSAQVDGTLDGDLLQELLIAFLSRKKRFVVWKVMKVLFATLLKRMGAHD	55600
GPIFILLNYIFLAMLWLKNYRPHHLHILIRTRPYVYVTSNLPRLRFLFRHFLF	48300
GPLCMDQYRRIFGVTRRPGLSVDSTVLASDLNGRVSILVLLRNRLFRLSLPTG	42400
GPLLFVEIRAGFFPLYYPFSFLCLSGFVFELGHYPSGSFVPGVLLSWSLNFII	53700
GPLRVAQRPRERPGLRAARVPAEGQEAEGPGRLGRARVGGGVPRGRAAARVVV	34200
GPLSDEKSVKVSTFSELIGNDWQSMNFDLENNSREVTLNATSLLNENRLNQDS	48600
GPRDVFGIRSAWKLPLSVAYWLLVCLARRKDFGSLRAVTVGHITWNQYMVGER	58600
GPSAEATPPSTEVKKKRQYRKRQITAEGGEAENGEASSAVPKPKRVRKKKDPP	38300
GPSSSSSLSSSAGMPGTFVLNLGRYGGYYVIHMPVGAQRVLGLVLRRWKTLLF	60500
GPTIRHEMNLFHVYGRRNPHLRLMISLIYVWMRSWGVKEMSPRTLCLLLIRFF	48600
GPTIRHKMNLFHVYGRRNPHLRLMISLIYVWMRSWGVKEMSPGTLCLLLIRFF	59800
GPWFLGAFIPSIPQYGLFYPYGIYFPDTKEWIPILDTFYIALWEHTFFIFPLL	51600
GPYDDIFMGGIYGIKHLYELEDGLTILWHDGIHFSPNRVFRLLIAFLLRVVGT	61900
GQAGAPQRASARGSVQLPAQRGAQDGEPAAARRARSRDHARHKPPRHGEAVHA	46200
GQATLRLLKESGRQSHAPIFIVGAFDGNRRQIGEGMGSSIKMAEFRAAEDALR	26300
GQGPLRSSYSMAYDSPVDRAMNTPLQQQEGLKAELPHDFLFQHGTDDTMYNLT	36100
GQHEGLDKLREYHEHVLDRILFALLLRKRQKPVMKLLEEIFTLVLKFSKYSSA	59400
GQLLVALAREAFTLVTWRTTLQGKLEVEIFPPSDLLLNRYMWYVLHLLDHTSL	13100
GQPTDASDGNATEGEVPEKPKKAKRKRVKKDAGEISDGGQPKSKPKKKRKPAK	36100

Sequence	transcriptional activation domain activity
GQRPFGQVLNFFSCFLFIAFSCCHGPSLVNLIVWAAFFAQSTLFLIYLLRCIC	43800
GQSGLGLEFNLPDFPLISIIFLIFFITLGLLWLVIVYLANFPDAFTLPVWLWH	29500
GQSRGTTSGTIATGLCAGLSRGIAESVELQKRIDFALAGYFRYIRWWRLGFMS	69900
GQTHVHFFPSLSHFYPLFFSFYNVLYPPCLYVRICPISLLLLLWWCFYLTFFC	44100
GQVELFTHHTSLRHIFFRLEKLGYRLVVIQLTDSFVISQPSLYISALLLALRG	35400
GRADARRGRRRRGGGGEGRRGTGDGGRGKTRGGEAGKERRTENRGARGGATRG	39600
GRAESPYNAKYLTGAFSSGSSNGAATATAASFAVFGMGSETVSSGRSPASNNA	44500
GREANDAAQKQRKREGARAARDGNRSAKEGNGRQDAGSRKKAGDGEGGGAERG	20600
GREGKKHRDRDGSSRGSSSKEKRRERSDGKKHREKSEGGKHREGRSREGRRED	44700
GRGKESLLVLSGCSLIQIPVPVWGYHIAFVVCQKYYGSHLGIVHLILPFAFTI	47800
GRGRGGRGAGARGRGGTGEEGEGAGGKQERGQGGRGKERGGEGGGERGQGGRG	28000
GRGVKAGGGPRDREGGERGRERGEEGGEEGARRKEGDSRKEPAGGERREREEG	33400
GRHFLAGVLEGLPYVMPLFAPTVNSYKRLVENFWAPVTVSWGLEHRIASIRLI	32600
GRHPEQHGVRYSLSKDSGATIVDIYLAHLLECLIPVVGRLKSVVSNLGTMRQT	78200
GRILIMLFLWLILRLQIRIVVREVLSRPCCCPFSTITSCAALEQYQRVYDQTA	36700
GRIMERSGGWLVLVSHFSYFLNWVLVLFLLFFGGYAYVYYLCISSLLFPFTSF	48800
GRKILNVFALVFFFINLFLFCLFLALTMCRYAMFPRLWGLMLRDPVQSLYLGC	46700
GRKKRAVKKKAEGAGAGAGGGGGGAEAEGKVETKGKKAAKPKSRTKAGAKAKG	< 6570
GRKPAAKPTPRNSSTTARGRKAKSEPESEDDKPLAKKGGAAATKQTKKPAVKK	22300
GRMIRMWKRWSVMAHGMNRLKHYANYLPRLIVLLNKTLPQDVADIIKFNMLVC	39100
GRNAGREDNSNNRNRRGDRRGAPREARAGGNTNGQQQQQQKKGGAPKAAAVDP	35600
GRNKRREKRPEEETTRQRRKGKREEQERRRTTKAGTKAEKRGEERRASGDANE	23100
GRPAKSQAEEPVEAAPEPKKRDRQANVAPEPVIEEAPVVKKGRGRPKKDAVTV	29600
GRPPRSSNESPEAKPAKRARKKAPTEEPEAEVLEDVKPKRGRARVAKKTTADV	22400
